From US20220340684A1 (AGENCY FOR SCIENCE TECHNOLOGY AND RESEARCH, published 2022)

B1: Recombinant human TRIM21 PRYSPRY domain (His-tagged, expressed in E. coli BL21 (DE3)) (receptor)
chain: VHITLDPDTANPWLILSEDRRQVRLGDTQQSIPGNEERFDSYPMVLGAQHFHSGKHYWEVDVTGKEAWDLGVCRDSVRRKGHFLLSSKSGFWTIWLWNKQKYEAGTYPQTPLHLQVPPCQVGIFLDYEAGMVSFYNITDHGSLIYSFSECAFTGPLRPFFSPGFNDGGKNTAPLTLCPLNIGSQGSTDY
modifications: biotinylated when used as bait for biopanning and in the ELISAs (sites not given)
notes: Purified on Ni-NTA and by gel filtration; Analyte in SPR; biotinylated form used in biopanning and ELISA; also called PRYSPRY domain of TRIM21; bait protein; not shown: N-terminal His-tag of the pQE-2 vector

Key:
[1] = biological target: B1; assay: SPR as in Example 1.10, TRIM21 PRYSPRY domain;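 also: antibodies amine-coupled to a GLC chip on a ProteON XPR36, TRIM21 flowed at five concentrations in PBS with 0.05% Tween-20, kinetics fitted to a Langmuir 1:1 model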
[2] = biological target: B1; assay: ELISA, 0.125 µg/ml biotinylated PRYSPRY domain
[3] = biological target: T1, Wildtype IgG1 Fc (reference in the SPR table of Example 4) (human, UniProt P0DOX5 230-449 = IgG part, limits assumed); assay: SPR as in Example 1.10, TRIM21 PRYSPRY domain;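 also: antibodies amine-coupled to a GLC chip on a ProteON XPR36, TRIM21 flowed at five concentrations in PBS with 0.05% Tween-20, kinetics fitted to a Langmuir 1:1 model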
T1 construct: also called wildtype Fc

Binder	Kd [1] [nM]	koff [1] [s⁻¹]	kon [1] [M⁻¹ s⁻¹]	binding result [2]	Kd [3] [nM]	koff [3] [s⁻¹]	kon [3] [M⁻¹ s⁻¹]
Fc region SN 1 of FIG. 13 (IgG1 256P/433S/434H/440G) (other) PCPAPELLGGPSVFLFPPKPKDTLMISRPPEVTCVVVDVSHEDPEVKFNWYVDGVEVHNAKTKPREEQYNSTYRVVSVLTVLHQDWLNGKEYKCKVSNKALPAPIEKTISKAKGQPREPQVYTLPPSRDELTKNQVSLTCLVKGFYPSDIAVEWESNGQPENNYKTTPPVLDSDGSFFLYSKLTVDKSRWQQGNVFSCSVMHEALSHHYTQKGLSLSPGK	0.055	0.000388	7.05e+06				
Fc region SN 10 of FIG. 13 (IgG1 256P/433V/434H/440R) (other) PCPAPELLGGPSVFLFPPKPKDTLMISRPPEVTCVVVDVSHEDPEVKFNWYVDGVEVHNAKTKPREEQYNSTYRVVSVLTVLHQDWLNGKEYKCKVSNKALPAPIEKTISKAKGQPREPQVYTLPPSRDELTKNQVSLTCLVKGFYPSDIAVEWESNGQPENNYKTTPPVLDSDGSFFLYSKLTVDKSRWQQGNVFSCSVMHEALVHHYTQKRLSLSPGK	0.892	0.00046	515000				
Fc region SN 46 of FIG. 13 (IgG1 256P/433V/434R) (other) PCPAPELLGGPSVFLFPPKPKDTLMISRPPEVTCVVVDVSHEDPEVKFNWYVDGVEVHNAKTKPREEQYNSTYRVVSVLTVLHQDWLNGKEYKCKVSNKALPAPIEKTISKAKGQPREPQVYTLPPSRDELTKNQVSLTCLVKGFYPSDIAVEWESNGQPENNYKTTPPVLDSDGSFFLYSKLTVDKSRWQQGNVFSCSVMHEALVRHYTQKSLSLSPGK	0.169	0.000124	730000				
Fc region SN 32 of FIG. 13 (IgG1 256P/433T/434R) (other) PCPAPELLGGPSVFLFPPKPKDTLMISRPPEVTCVVVDVSHEDPEVKFNWYVDGVEVHNAKTKPREEQYNSTYRVVSVLTVLHQDWLNGKEYKCKVSNKALPAPIEKTISKAKGQPREPQVYTLPPSRDELTKNQVSLTCLVKGFYPSDIAVEWESNGQPENNYKTTPPVLDSDGSFFLYSKLTVDKSRWQQGNVFSCSVMHEALTRHYTQKSLSLSPGK	0.498	0.00053	1.06e+06				
modified Fc (other, also called PN04-90 Fc) Fc polypeptide (CH2-CH3): PCPAPELLGGPSVFLFPPKPKDTLMISRPPEVTCVVVDVSHEDPEVKFNWYVDGVEVHNAKTKPREEQYNSTYRVVSVLTVLHQDWLNGKEYKCKVSNKALPAPIEKTISKAKGQPREPQVYTLPPSRDELTKNQVSLTCLVKGFYPSDIAVEWESNGQPENNYKTTPPVLDSDGSFFLYSKLTVDKSRWQQGNVFSCSVMHEALTRHFTQKILSLSPGK				binds			
Fc region SN 9 of FIG. 13 (IgG1 256P/433V/434H) (other) PCPAPELLGGPSVFLFPPKPKDTLMISRPPEVTCVVVDVSHEDPEVKFNWYVDGVEVHNAKTKPREEQYNSTYRVVSVLTVLHQDWLNGKEYKCKVSNKALPAPIEKTISKAKGQPREPQVYTLPPSRDELTKNQVSLTCLVKGFYPSDIAVEWESNGQPENNYKTTPPVLDSDGSFFLYSKLTVDKSRWQQGNVFSCSVMHEALVHHYTQKSLSLSPGK	0.0957	0.000481	5.03e+06				
Fc region SN 2 of FIG. 13 (IgG1 256P/433S/434H) (other) PCPAPELLGGPSVFLFPPKPKDTLMISRPPEVTCVVVDVSHEDPEVKFNWYVDGVEVHNAKTKPREEQYNSTYRVVSVLTVLHQDWLNGKEYKCKVSNKALPAPIEKTISKAKGQPREPQVYTLPPSRDELTKNQVSLTCLVKGFYPSDIAVEWESNGQPENNYKTTPPVLDSDGSFFLYSKLTVDKSRWQQGNVFSCSVMHEALSHHYTQKSLSLSPGK	0.156	0.000727	4.66e+06				
Fc region SN 92 of FIG. 13 (IgG1 256A/436F/440M) (other) PCPAPELLGGPSVFLFPPKPKDTLMISRAPEVTCVVVDVSHEDPEVKFNWYVDGVEVHNAKTKPREEQYNSTYRVVSVLTVLHQDWLNGKEYKCKVSNKALPAPIEKTISKAKGQPREPQVYTLPPSRDELTKNQVSLTCLVKGFYPSDIAVEWESNGQPENNYKTTPPVLDSDGSFFLYSKLTVDKSRWQQGNVFSCSVMHEALHNHFTQKMLSLSPGK	3.68	0.0145	3.94e+06				
B1					126	0.0812	647000
